Measurements reported in patent US20210032299A1 (Eli Lilly, published 2021).
Starred links: 1 amine or outer side, 2 acyl side, 3 side chain; linkers in the order of their positions; H or OH if unused. Non-standard residues stand in square brackets, D forms with d. Groups on a side chain read outwards from the residue. No end group written: not given here. *: point of attachment. C20 diacid = O=C(O)CCCCCCCCCCCCCCCCCCC(=O)*; αMePhe(2-F) = C[C@](N)(Cc1ccccc1F)C(=O)O; γGlu = O=C(O)[C@H](CCC(=O)[*:2])N[*:1]; αMeF = C[C@](N)(Cc1ccccc1)C(=O)O; 4Pal = N[C@@H](Cc1ccncc1)C(=O)O; AEEA = NCCOCCOCC(=O)O; Aib = CC(C)(N)C(=O)O

T1: human glucose-dependent insulinotropic polypeptide (GIP) receptor (human, UniProt P48546 22-466)
T1 construct: whole, on cells; Assayed as crude membranes of stably transfected CHO cells; also called hGIPR; human GIP receptor
T1 sequence (looked up): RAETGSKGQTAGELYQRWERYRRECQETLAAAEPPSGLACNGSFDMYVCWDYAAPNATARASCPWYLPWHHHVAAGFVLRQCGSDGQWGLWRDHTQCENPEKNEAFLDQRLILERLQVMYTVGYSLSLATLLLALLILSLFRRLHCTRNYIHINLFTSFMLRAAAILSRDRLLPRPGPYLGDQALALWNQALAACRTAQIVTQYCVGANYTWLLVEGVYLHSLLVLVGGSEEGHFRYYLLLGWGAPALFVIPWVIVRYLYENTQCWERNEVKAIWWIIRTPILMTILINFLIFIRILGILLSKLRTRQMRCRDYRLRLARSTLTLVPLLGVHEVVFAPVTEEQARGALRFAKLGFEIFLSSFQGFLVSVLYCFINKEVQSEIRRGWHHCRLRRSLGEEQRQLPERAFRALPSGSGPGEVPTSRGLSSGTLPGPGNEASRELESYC

B1: Example 42 (peptide)
peptide: Y[Aib]EGT[αMeF]ISDYSIALDKK([AEEA-AEEA-γGlu-C20 diacid])HQ[Aib]DFVE[4Pal]LLEQGPSSGAPPPS-NH2
modifications: N-terminus assumed
SMILES: CC[C@H](C)[C@H](NC(=O)[C@H](CO)NC(=O)[C@H](Cc1ccc(O)cc1)NC(=O)[C@H](CC(=O)O)NC(=O)[C@H](CO)NC(=O)[C@@H](NC(=O)[C@](C)(Cc1ccccc1)NC(=O)[C@@H](NC(=O)CNC(=O)[C@H](CCC(=O)O)NC(=O)C(C)(C)NC(=O)[C@@H](N)Cc1ccc(O)cc1)[C@@H](C)O)[C@@H](C)CC)C(=O)N[C@@H](C)C(=O)N[C@@H](CC(C)C)C(=O)N[C@@H](CC(=O)O)C(=O)N[C@@H](CCCCN)C(=O)N[C@@H](CCCCNC(=O)COCCOCCNC(=O)COCCOCCNC(=O)CC[C@H](NC(=O)CCCCCCCCCCCCCCCCCCC(=O)O)C(=O)O)C(=O)N[C@@H](Cc1c[nH]cn1)C(=O)N[C@@H](CCC(N)=O)C(=O)NC(C)(C)C(=O)N[C@@H](CC(=O)O)C(=O)N[C@@H](Cc1ccccc1)C(=O)N[C@H](C(=O)N[C@@H](CCC(=O)O)C(=O)N[C@@H](Cc1ccncc1)C(=O)N[C@@H](CC(C)C)C(=O)N[C@@H](CC(C)C)C(=O)N[C@@H](CCC(=O)O)C(=O)N[C@@H](CCC(N)=O)C(=O)NCC(=O)N1CCC[C@H]1C(=O)N[C@@H](CO)C(=O)N[C@@H](CO)C(=O)NCC(=O)N[C@@H](C)C(=O)N1CCC[C@H]1C(=O)N1CCC[C@H]1C(=O)N1CCC[C@H]1C(=O)N[C@@H](CO)C(N)=O)C(C)C
B2: Example 43 (peptide)
peptide: Y[Aib]EGT[αMeF]ISDYSIALDKK([AEEA-AEEA-γGlu-C20 diacid])HQ[Aib]DFVE[4Pal]LLEAGPSSGAPPPS-NH2
modifications: N-terminus assumed
SMILES: CC[C@H](C)[C@H](NC(=O)[C@H](CO)NC(=O)[C@H](Cc1ccc(O)cc1)NC(=O)[C@H](CC(=O)O)NC(=O)[C@H](CO)NC(=O)[C@@H](NC(=O)[C@](C)(Cc1ccccc1)NC(=O)[C@@H](NC(=O)CNC(=O)[C@H](CCC(=O)O)NC(=O)C(C)(C)NC(=O)[C@@H](N)Cc1ccc(O)cc1)[C@@H](C)O)[C@@H](C)CC)C(=O)N[C@@H](C)C(=O)N[C@@H](CC(C)C)C(=O)N[C@@H](CC(=O)O)C(=O)N[C@@H](CCCCN)C(=O)N[C@@H](CCCCNC(=O)COCCOCCNC(=O)COCCOCCNC(=O)CC[C@H](NC(=O)CCCCCCCCCCCCCCCCCCC(=O)O)C(=O)O)C(=O)N[C@@H](Cc1c[nH]cn1)C(=O)N[C@@H](CCC(N)=O)C(=O)NC(C)(C)C(=O)N[C@@H](CC(=O)O)C(=O)N[C@@H](Cc1ccccc1)C(=O)N[C@H](C(=O)N[C@@H](CCC(=O)O)C(=O)N[C@@H](Cc1ccncc1)C(=O)N[C@@H](CC(C)C)C(=O)N[C@@H](CC(C)C)C(=O)N[C@@H](CCC(=O)O)C(=O)N[C@@H](C)C(=O)NCC(=O)N1CCC[C@H]1C(=O)N[C@@H](CO)C(=O)N[C@@H](CO)C(=O)NCC(=O)N[C@@H](C)C(=O)N1CCC[C@H]1C(=O)N1CCC[C@H]1C(=O)N1CCC[C@H]1C(=O)N[C@@H](CO)C(N)=O)C(C)C
B3: Example 34 (peptide)
peptide: Y[Aib]EGT[αMePhe(2-F)]ISDYSIALDKK([AEEA-AEEA-γGlu-C20 diacid])HQ[Aib]EFVNYLLATGPSSGAPPPS-NH2
modifications: N-terminus assumed
SMILES: CC[C@H](C)[C@H](NC(=O)[C@H](CO)NC(=O)[C@H](Cc1ccc(O)cc1)NC(=O)[C@H](CC(=O)O)NC(=O)[C@H](CO)NC(=O)[C@@H](NC(=O)[C@](C)(Cc1ccccc1F)NC(=O)[C@@H](NC(=O)CNC(=O)[C@H](CCC(=O)O)NC(=O)C(C)(C)NC(=O)[C@@H](N)Cc1ccc(O)cc1)[C@@H](C)O)[C@@H](C)CC)C(=O)N[C@@H](C)C(=O)N[C@@H](CC(C)C)C(=O)N[C@@H](CC(=O)O)C(=O)N[C@@H](CCCCN)C(=O)N[C@@H](CCCCNC(=O)COCCOCCNC(=O)COCCOCCNC(=O)CC[C@H](NC(=O)CCCCCCCCCCCCCCCCCCC(=O)O)C(=O)O)C(=O)N[C@@H](Cc1c[nH]cn1)C(=O)N[C@@H](CCC(N)=O)C(=O)NC(C)(C)C(=O)N[C@@H](CCC(=O)O)C(=O)N[C@@H](Cc1ccccc1)C(=O)N[C@H](C(=O)N[C@@H](CC(N)=O)C(=O)N[C@@H](Cc1ccc(O)cc1)C(=O)N[C@@H](CC(C)C)C(=O)N[C@@H](CC(C)C)C(=O)N[C@@H](C)C(=O)N[C@H](C(=O)NCC(=O)N1CCC[C@H]1C(=O)N[C@@H](CO)C(=O)N[C@@H](CO)C(=O)NCC(=O)N[C@@H](C)C(=O)N1CCC[C@H]1C(=O)N1CCC[C@H]1C(=O)N1CCC[C@H]1C(=O)N[C@@H](CO)C(N)=O)[C@@H](C)O)C(C)C
B4: Example 25 (peptide)
peptide: Y[Aib]EGT[αMeF]ISDYSIALDKK([AEEA-AEEA-γGlu-C20 diacid])HQ[Aib]EFVNWLLAGGPSSGAPPPS-NH2
modifications: N-terminus assumed
SMILES: CC[C@H](C)[C@H](NC(=O)[C@H](CO)NC(=O)[C@H](Cc1ccc(O)cc1)NC(=O)[C@H](CC(=O)O)NC(=O)[C@H](CO)NC(=O)[C@@H](NC(=O)[C@](C)(Cc1ccccc1)NC(=O)[C@@H](NC(=O)CNC(=O)[C@H](CCC(=O)O)NC(=O)C(C)(C)NC(=O)[C@@H](N)Cc1ccc(O)cc1)[C@@H](C)O)[C@@H](C)CC)C(=O)N[C@@H](C)C(=O)N[C@@H](CC(C)C)C(=O)N[C@@H](CC(=O)O)C(=O)N[C@@H](CCCCN)C(=O)N[C@@H](CCCCNC(=O)COCCOCCNC(=O)COCCOCCNC(=O)CC[C@H](NC(=O)CCCCCCCCCCCCCCCCCCC(=O)O)C(=O)O)C(=O)N[C@@H](Cc1c[nH]cn1)C(=O)N[C@@H](CCC(N)=O)C(=O)NC(C)(C)C(=O)N[C@@H](CCC(=O)O)C(=O)N[C@@H](Cc1ccccc1)C(=O)N[C@H](C(=O)N[C@@H](CC(N)=O)C(=O)N[C@@H](Cc1c[nH]c2ccccc12)C(=O)N[C@@H](CC(C)C)C(=O)N[C@@H](CC(C)C)C(=O)N[C@@H](C)C(=O)NCC(=O)NCC(=O)N1CCC[C@H]1C(=O)N[C@@H](CO)C(=O)N[C@@H](CO)C(=O)NCC(=O)N[C@@H](C)C(=O)N1CCC[C@H]1C(=O)N1CCC[C@H]1C(=O)N1CCC[C@H]1C(=O)N[C@@H](CO)C(N)=O)C(C)C
B5: Example 26 (peptide)
peptide: Y[Aib]EGT[αMePhe(2-F)]ISDYSIALDKK([AEEA-AEEA-γGlu-C20 diacid])HQ[Aib]EFVNWLLAGGPSSGAPPPS-NH2
modifications: N-terminus assumed
SMILES: CC[C@H](C)[C@H](NC(=O)[C@H](CO)NC(=O)[C@H](Cc1ccc(O)cc1)NC(=O)[C@H](CC(=O)O)NC(=O)[C@H](CO)NC(=O)[C@@H](NC(=O)[C@](C)(Cc1ccccc1F)NC(=O)[C@@H](NC(=O)CNC(=O)[C@H](CCC(=O)O)NC(=O)C(C)(C)NC(=O)[C@@H](N)Cc1ccc(O)cc1)[C@@H](C)O)[C@@H](C)CC)C(=O)N[C@@H](C)C(=O)N[C@@H](CC(C)C)C(=O)N[C@@H](CC(=O)O)C(=O)N[C@@H](CCCCN)C(=O)N[C@@H](CCCCNC(=O)COCCOCCNC(=O)COCCOCCNC(=O)CC[C@H](NC(=O)CCCCCCCCCCCCCCCCCCC(=O)O)C(=O)O)C(=O)N[C@@H](Cc1c[nH]cn1)C(=O)N[C@@H](CCC(N)=O)C(=O)NC(C)(C)C(=O)N[C@@H](CCC(=O)O)C(=O)N[C@@H](Cc1ccccc1)C(=O)N[C@H](C(=O)N[C@@H](CC(N)=O)C(=O)N[C@@H](Cc1c[nH]c2ccccc12)C(=O)N[C@@H](CC(C)C)C(=O)N[C@@H](CC(C)C)C(=O)N[C@@H](C)C(=O)NCC(=O)NCC(=O)N1CCC[C@H]1C(=O)N[C@@H](CO)C(=O)N[C@@H](CO)C(=O)NCC(=O)N[C@@H](C)C(=O)N1CCC[C@H]1C(=O)N1CCC[C@H]1C(=O)N1CCC[C@H]1C(=O)N[C@@H](CO)C(N)=O)C(C)C

Tests used:
[1] = molecular target: T1, human glucose-dependent insulinotropic …; assay: SPA, displacement of [125I]-GIP from hGIPR membranes, 0.1% bacitracin
human glucagon receptor = molecular target: T2, human glucagon receptor (human, UniProt P47871 26-477); assay: SPA, displacement of [125I]-Gcg from hGcgR membranes, 0.1% bacitracin
T2 construct: whole, on cells; Assayed as crude membranes of stably transfected HEK293 cells; also called hGcgR; GcgR
T2 sequence (P47871 26-477): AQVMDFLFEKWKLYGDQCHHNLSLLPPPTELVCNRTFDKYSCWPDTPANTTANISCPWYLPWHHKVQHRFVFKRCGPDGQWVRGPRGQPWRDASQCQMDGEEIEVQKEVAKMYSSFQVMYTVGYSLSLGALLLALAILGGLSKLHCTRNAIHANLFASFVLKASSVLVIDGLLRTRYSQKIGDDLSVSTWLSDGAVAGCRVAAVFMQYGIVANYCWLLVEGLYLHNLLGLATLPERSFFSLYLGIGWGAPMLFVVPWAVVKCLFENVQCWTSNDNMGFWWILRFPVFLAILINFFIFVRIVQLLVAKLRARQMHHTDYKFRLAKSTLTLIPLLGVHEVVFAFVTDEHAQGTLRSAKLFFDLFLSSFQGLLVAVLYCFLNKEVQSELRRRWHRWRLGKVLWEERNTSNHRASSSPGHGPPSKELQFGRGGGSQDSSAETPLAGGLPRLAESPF
How it was run: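 Binding buffer: 25 mM HEPES pH 7.4, 2.5 mM CaCl₂, 1 mM MgCl₂, 0.003% Tween-20, protease inhibitors without EDTA. Counted by scintillation after 12 h incubation/settling at room temperature. Four-parameter nonlinear fit; Kᵢ given as geometric mean ± SEM of independent replicates run on different days.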

human GLP-1 receptor = molecular target: T3, human GLP-1 receptor (human, UniProt P43220 24-463); assay: SPA, displacement of [125I]-GLP-1 from hGLP-1R membranes, 0.1% bacitracin
T3 construct: whole, on cells; Assayed as crude membranes of stably transfected HEK293 cells; also called hGLP1R; hGLP-1R
How it was run: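 Binding buffer: 25 mM HEPES pH 7.4, 2.5 mM CaCl₂, 1 mM MgCl₂, 0.1% bacitracin, 0.003% Tween-20, protease inhibitors without EDTA. Four-parameter nonlinear regression; Kᵢ given as geometric mean ± SEM, n = independent replicates run on different days.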

Binder | Ki [1] [nM] | Ki (human glucagon receptor) [nM] | Ki (human GLP-1 receptor) [nM]
B1 | 0.0392 | 99.1 | 563
B2 | 0.0366 | 285 | 605
B3 | 0.034 | 143 | 201
B4 | 0.0417 | 101 | 15.8
B5 | 0.045 | 74.1 | 16.5
